Experiments:
Ang2-Tie2 binding = biological target: T1, Ang2-Tie2 binding (Homo sapiens, UniProt O15123); test: Ang2-Tie2 binding competition ELISA; details: antibody 400 nM to 0.001 nM; 400 ng/ml FLAG-tagged hAng2; hTie2-Fc coated plate
T1 construct: purchased R&D Systems (hTie2-Fc)
T1 sequence (O15123 19-496): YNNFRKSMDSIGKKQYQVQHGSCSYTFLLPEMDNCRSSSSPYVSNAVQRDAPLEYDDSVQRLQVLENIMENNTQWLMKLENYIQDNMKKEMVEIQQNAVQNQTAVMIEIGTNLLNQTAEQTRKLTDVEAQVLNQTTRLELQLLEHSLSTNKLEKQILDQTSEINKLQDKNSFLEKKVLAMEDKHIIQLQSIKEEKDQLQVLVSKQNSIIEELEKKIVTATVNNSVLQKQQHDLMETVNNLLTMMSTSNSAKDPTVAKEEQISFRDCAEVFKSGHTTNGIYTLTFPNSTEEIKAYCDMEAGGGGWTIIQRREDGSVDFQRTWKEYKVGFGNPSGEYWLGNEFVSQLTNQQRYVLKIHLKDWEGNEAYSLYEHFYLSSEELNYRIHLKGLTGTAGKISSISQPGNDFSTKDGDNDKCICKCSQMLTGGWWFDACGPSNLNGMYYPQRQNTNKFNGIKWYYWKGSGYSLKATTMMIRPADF
Experimental: Ang2-Tie2 binding competition ELISA was conducted using the antibody binding to Ang2 prepared in Example 2-1 above.
More specifically, MaxiSorp™ flat-bottom plate (Nunc) of 96-well was coated with hTie2-Fc (R&D Systems) which is a protein bound with 4 ug (microgram)/ml of Fc of human IgG1. After that, the plate was washed five times with 0.05% (v/v) Tween-20-containing PBS (phosphate buffer saline) and then blocked with 1% (v/v) BSA (bovine serum albumin; Sigma)-containing PBS at a room temperature for 2 hour.
For Ang2:Tie2 competition ELISA, each anti-Ang2 antibody obtained in Example 2 was placed at various concentrations of 400 nM to 0.001 nM into each well coated with the hTie-2/Fc fusion protein along with 1% (v/v) BSA and 400 ng/ml of a FLAG-tagged hAng2 and then, the plate was allowed to react at a room temperature for 2 hours and washed five times with PBST. […] Lastly, 100 ul (microliter) of TMB substrate (Cell Signaling) was added to each well of the plate to induce color development for 3 min. and then, the reaction was ceased by the addition of 100 ul of Stop solution (Cell Signaling) and OD450 values were measured on a plate reader (Molecular Devices). […]

[1] = tested on: Vascular endothelial cells (HUVEC); test: BrdU proliferation assay, vascular endothelial cells; format: cell-based, human; details: 2 ug/ml Ang2 with 10 ug/ml antibody; 3 days
Experimental: The measurement assay of the proliferation of vascular and lymphatic endothelial cells was conducted using a BrdU assay kit (Roche) Cell. Vascular endothelial cells of P3˜P8 (HUVEC, ATCC) or lymphatic endothelial cells (Lonza) were placed in a collagen-coated 96-well plate (BD Bioscience) at 3000˜5000 cells/well and cultured in EGM-2 media (Lonza) for 16˜24 hours. A mixture of 2 ug/ml of Ang2 (R&D systems) and 10 ug/ml of antibody 10D6 in 2% EBM media was added to the 96-well plate washed with PBS, which was then cultured for 3 days.
For efficiency comparison, an anti-Ang2 antibody (MEDI: Medlmmune Co.) was used. For a BrdU assay, 10 ul of BrdU solution diluted at 1:1,000 was added to each well of the plate to label the cells. The cells were cultured for 1 hour and after the removal of the culture solution, 100 ul of Fixation/Denaturation solution (Roche) was added to each well and then, removed after 30-min wait. An anti-BrdU antibody (Roche) conjugated with peroxidase was diluted in a dilution buffer (Roche) at 1:100, added to each well to react for 1 hour and then, washed four times using a washing buffer (Roche). 100 ul of a TMB substrate was added thereto to react and then, absorption was measured at 450 nm using a Microplate reader (Perkin Elmer).

E-selectin = test: LPS-induced mRNA expression of E-selectin in HUVEC (qPCR); format: cell-based, human; details: 100 ng/ml LPS 5 hours, 0.2 ug/ml Ang1 or 0.1 ug/ml Ang2 + 0.5 ug/ml antibody
Experimental: To see anti-inflammatory effects by antibody 10D6, HUVEC (ATCC) cells (4×10^5) were treated with Ang2 alone or Ang2 together with antibody 10D6, and a group in which Ang1 and Ang2 (R&D systems) and Regeneron Co. antibody (RG antibody) were co-treated was included as a control group. HUVEC cells were treated with 0.2 ug/ml of Ang1, 0.1 ug/ml of Ang2, or 0.1 ug/ml of Ang2 and 0.5 ug/ml of antibody, respectively and after 30-min. pre-incubation, they were treated with 100 ng/ml of LPS (Sigma) to induce inflammatory response and incubated for 5 hours.
The degree of the inflammatory response was identified by measuring the mRNA expression degree of an inflammatory adhesion substance (ICAM-1, E-selectin). The cells were washed using PBS, RNA was extracted using RNeasy Mini kit (Qiagen), and among them, 2 ug of RNA was synthesized into cDNA using Transcriptor First Strand cDNA synthesis kit (Roche). qPCR reaction was performed using RT2 SYBR™ Green Mastermix (Qiagen) and LightCycler™ 480 Real-Time PCR System (Roche). As an internal control for calibrating the amount of RNA in a sample, HPRT1 was used, and qPCR complied with the following procedures with regard to all the primers.
Step 1: 95° C., 10 min; Step 2 (45 cycles): Step 2-1: 95° C., 15 sec; Step 2-2: 60° C., 1 min; Step 3: 65° C., 15 sec; Step 4: 95° C., continuous (every 20° C.); Step 6: 40° C., 10 sec.

B1: 10D6: mouse anti-Ang2 monoclonal antibody from hybridoma KCLRF-BP-00295; heavy chain variable region SEQ ID NO: 7, light chain variable region SEQ ID NO: 9 (antibody, V domains shown)
VH: DVQLQESGPGLVKPSQSLSLTCTVTGYSITSDYAWNWIRQFPGNKLEWMGYINYSGNTDYNPSLKSRSSITRDTSKNQFFLQLNSVTTGDTATYYCARGNFEGAMDYWGQGTSVTVSS
VL: SIVMTQTPKFLLVSAGDRVTITCKASQSVSNDVAWYQQKPGQSPKLLIYYASNRYPGVPDRFTGSGYGTDFTFTISTVQAEDLAVYFCQQDYSSPWTFGGGTKLEIK
modifications: Synthetic (Heavy chain variable region of an anti-Ang2 antibody); Synthetic (Light chain variable region of anti-Ang2 antibody)
With B1 the “inhibition of Ang2-Tie2 binding” value (Ang2-Tie2 binding) was “did not inhibit”, the “growth of vascular endothelial cells (BrdU)” value [1] was “increased” and the “expression of E-selectin induced by LPS” value (E-selectin) was “remarkably suppressed”.

Reference: patent publication US9505841B2, “Use of an anti-Ang2 antibody” (Samsung Electronics Co., Ltd., priority 2013, dated 2016)
